Biological target: Ubiquitin (Ub)
Assay: biotin-streptavidin pull-down and mass spectrometry
Settings: N2A cells, triplicate experiments, S0: 1.5, FDR: 0.01, read off a plot

“bioGFP-tagged OPTN wild-type (from UniProt Q96CV9) E478G” was tested, and the other: Welch's t-test difference (logarithmized ratio of relative protein intensities, WT vs mutant) was 4.1.

From article PMC4947123
